Test results as given in patent US20140295495A1 (Biogen, published 2014).

Target: T1, human antigen that binds to mAb1 (human, UniProt Q96FE5 42-538, limits assumed)
T1 sequence (looked up): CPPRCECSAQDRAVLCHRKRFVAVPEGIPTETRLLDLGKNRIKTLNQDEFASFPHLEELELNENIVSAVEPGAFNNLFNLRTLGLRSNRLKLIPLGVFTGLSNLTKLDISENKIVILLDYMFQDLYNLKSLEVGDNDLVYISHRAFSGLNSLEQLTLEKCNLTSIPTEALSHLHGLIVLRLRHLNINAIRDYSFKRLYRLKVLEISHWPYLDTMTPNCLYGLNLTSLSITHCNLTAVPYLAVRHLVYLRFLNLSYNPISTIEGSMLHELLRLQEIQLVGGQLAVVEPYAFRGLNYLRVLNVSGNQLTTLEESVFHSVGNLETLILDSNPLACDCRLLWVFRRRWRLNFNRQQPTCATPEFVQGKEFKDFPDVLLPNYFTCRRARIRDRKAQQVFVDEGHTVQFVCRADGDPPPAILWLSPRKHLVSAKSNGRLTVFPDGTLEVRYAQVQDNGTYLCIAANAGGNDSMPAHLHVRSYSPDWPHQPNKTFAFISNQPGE
Assay: direct binding ELISA, antigen coated on the plate, detection with AP-anti-human Fab
Description: Plates were washed 3 times with 350 μL of PBS using a plate washer and blocked with 1% BSA, 0.1% ovalbumin, and 0.1% non-fat dry milk in Hank's balanced salt buffer containing 25 mM HEPES (pH 7.0) for 1 hour at room temperature. Plates were then washed again, and incubated for 1 h with a 3-fold dilution series set up for each test compound (50 μL/well, 8 dilutions) starting at 10 μg/mL and all in 0.1% BSA, 0.1% ovalbumin, and 0.1% non-fat dry milk in Hank's balanced salt buffer containing 25 mM HEPES (pH 7.0), and again washed. […] Plates were read at 405 nm on a Molecular Devices plate reader. EC₅₀ values for binding were calculated from the titration curve using prism software.

B1: mAb1-C (mAb1, anti-LINGO-1 antibody Li81, aglycosyl human IgG1; preparation with 39% trisulfide at the LC5-HC5 linkage) (antibody, V domains shown)
VH: EVQLLESGGGLVQPGGSLRLSCAASGFTFSAYEMKWVRQAPGKGLEWVSVIGPSGGFTFYADSVKGRFTISRDNSKNTLYLQMNSLRAEDTAVYYCATEGDNDAFDIWGQGTTVTVSS
VL: DIQMTQSPATLSLSPGERATLSCRASQSVSSYLAWYQQKPGQAPRLLIYDASNRATGIPARFSGSGSGTDFTLTISSLEPEDFAVYYCQQRSNWPMYTFGQGTKLEIK
modifications: 39% trisulfide at the LC5-HC5 linkage (heavy-light interchain Cys linkage)
- EC50: 0.02 nM

B2: mAb1-A (mAb1, anti-LINGO-1 antibody Li81, aglycosyl human IgG1; preparation with about 0.5% trisulfide at the LC5-HC5 linkage) (antibody, V domains shown)
VH: EVQLLESGGGLVQPGGSLRLSCAASGFTFSAYEMKWVRQAPGKGLEWVSVIGPSGGFTFYADSVKGRFTISRDNSKNTLYLQMNSLRAEDTAVYYCATEGDNDAFDIWGQGTTVTVSS
VL: DIQMTQSPATLSLSPGERATLSCRASQSVSSYLAWYQQKPGQAPRLLIYDASNRATGIPARFSGSGSGTDFTLTISSLEPEDFAVYYCQQRSNWPMYTFGQGTKLEIK
modifications: about 0.5% trisulfide at the LC5-HC5 linkage (heavy-light interchain Cys linkage)
notes: also called mAb-A
- EC50: 0.02 nM
